{
  "source": "the nanobody polyreactivity screen of Harvey et al. (2022)",
  "data": [
    {"test": "yeast display, Sf9 membrane polyspecificity reagent, FACS + sequencing; frameworks hold sequencing errors", "method_in_brief": "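Nanobodies came from a synthetic yeast display library in Saccharomyces cerevisiae BJ5465, induced with galactose for 36–48 hours and stained for 1 hour at 4 °C with 10% biotinylated, detergent-solubilized Sf9 membrane reagent. Cells were enriched on streptavidin microbeads and then FACS-sorted, with low and high (top ~1%) gates set on anti-HA fluorescence for expression and streptavidin fluorescence for reagent binding. Each polyreactivity label reflects the gate a clone came from. Genes were amplified by colony PCR, sequenced by MiSeq 2 × 250 and filtered by CDR length.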", "values": [
      {"sequence": "QVQLVESGGGLVQAGGSLRLSSAASGITFDVNVMGWYRQAPRKERELVAAIRRGDSTDYADSVKGRFSISRDNEKNTVYLQMKSLKPEDTAVYYCAADDSGYELRAYTWPYFGYDYWGQGTQVTVSS", "polyreactivity (PSR sort gate)": "low polyreactivity"},
      {"sequence": "QVQLVESGGGLVQAGGSLRLSSAASGITFYDYAMGWSRPSPGKERELVAAINSSGVRTYYADSVKGRFTISRDNAKNTVYLQMKSLNPEYTAVYYCAAKLVYGGRYGYWGQGTQVTVSS", "polyreactivity (PSR sort gate)": "high polyreactivity"},
      {"sequence": "QVQLVESGGGLVQAGGSLRLSSAASGITFYGYARGWYRQPPGKEREFVAAISYSGGSTYYADSVKGRFTISRDNAKNTVYLQMNSLKPEDTAVYYCAARVGRSLYGYWGLGTQVTVSS", "polyreactivity (PSR sort gate)": "high polyreactivity"},
      {"sequence": "QVQLVESGGGLVQAGGSLRLSSAASGLIFFTYAMGWYRQAPGKERELVATISRGGRTKYADSVKGRFTISRDNAKNSVYLQMNSLKPEDTAVYYCAAYLSRSYYAYDYWGQGTQVTVSS", "polyreactivity (PSR sort gate)": "high polyreactivity"},
      {"sequence": "QVQLVESGGGLVQAGGSLRLSSAASGNIFTYNAMGWYRPARGTERELVAAISSGGSTNYADSVKGRFTISRHNAKNTVYLQLNSLKPEDTAVYYCAADLTISYSQEYYYWGQGTQETVSS", "polyreactivity (PSR sort gate)": "low polyreactivity"},
      {"sequence": "QVQLVESGGGLVQAGGSLRLSSAASGRIFAVYAMGLYRQAPGKERELVAAINWNDGSTYYADSVKGRFTISRDNAKNTVYLQMNSLKPEDTAVYYCAARALSRSVYGKSGYKYGYWGQGTQVTVSS", "polyreactivity (PSR sort gate)": "high polyreactivity"},
      {"sequence": "QVQLVESGGGLVQAGGSLRLSSAASGRIFDGNAMGGYRQAPGTERELVATINRGARTNYADSVKGRFTISRDNAKNTVYLQMNSLKPEDTAVYYCATSYPGYAYNQAWYPYGYWGQGTQVTVSS", "polyreactivity (PSR sort gate)": "low polyreactivity"},
      {"sequence": "QVQLVESGGGLVQAGGSLRLSSAASGRIFDYYAMGWYRQAPGKESELVAAISSGSSTNYADSVKGRFTISRDNAKNTFYLQMNSLKPEDTAVYYCAATYGYLRRNHYNYWGQGTQVTVSS", "polyreactivity (PSR sort gate)": "high polyreactivity"},
      {"sequence": "QVQLVESGGGLVQAGGSLRLSSAASGRIFGFNAMGWYRPAPGKERELVAAITWGVGSTYYADSVKGRFTISRDNAKNTVYLQMNSLKPEDTAVYYCAAVSYAAVYGFDYWGQGTQVTVSS", "polyreactivity (PSR sort gate)": "high polyreactivity"},
      {"sequence": "QVQLVESGGGLVQAGGSLRLSSAASGRIFGYNAMGWYRQAPGKERELVAVITYRGTSTYYADSVKGRFTISRDNAKNTVYLQMNSLKPEDTAVYYCAAVNGGYWRYYYWGQGTQVTVSS", "polyreactivity (PSR sort gate)": "high polyreactivity"},
      {"sequence": "QVQLVESGGGLVQAGGSLRLSSAASGRIFNSYAMGWYRQAPGKERELVAIIRSSGTTYYADSVKGRFTISRDNAKNSVYVQMNSLKPEDTAVYDCAADPYYWRQFNYDYWGHGTQVTVSS", "polyreactivity (PSR sort gate)": "high polyreactivity"},
      {"sequence": "QVQLVESGGGLVQAGGSLRLSSAASGRIFNWYTMGWYRQSPGKERELVAAITSGGTTTYYADSVKGRFTISRDNAKNTVYLQMTSLKPEDTAVYYCAARRGGRRGYDYWGQGTQVTVSS", "polyreactivity (PSR sort gate)": "high polyreactivity"},
      {"sequence": "QVQLVESGGGLVQAGGSLRLSSAASGRIFPYYAMGWYRQAPGKETELVATISSGGRTNYADSVKGRFTISRDNAKYTVYLQMNSLKPEDTAVYYCAADYRKSRVFYGLYYWGQGTQVTVSS", "polyreactivity (PSR sort gate)": "high polyreactivity"},
      {"sequence": "QVQLVESGGGLVQAGGSLRLSSAASGRIFVGYAKGWYIQAPGKERELVAGIRYSGGSTYYADSVKGRFTISRDNAKNTVYLQMNSLKPEDTAVYYCATQVWHYAGRPNYKYDYWGQGTQVTVSS", "polyreactivity (PSR sort gate)": "low polyreactivity"},
      {"sequence": "QVQLVESGGGLVQAGGSLRLSSAASGRIFVNYAMGSSRQAPGKERELVAAITSDGSTSYADSVNGRFTISRDNAKNTVFLEMNSLKPEDTAVYYCAKGQRDREEYDYWGQGTQVTVSS", "polyreactivity (PSR sort gate)": "low polyreactivity"},
      {"sequence": "QVQLVESGGGLVQAGGSLRLSSAASGRTFAVYTMRWYRQAPGKEREFVARIRYSGGNTYYADSVKRRFTLSRDNAKNTVYLQMNSLKPEDTAVYSCAARSRYRVYGSRNFDYWGQGSQVTVSS", "polyreactivity (PSR sort gate)": "high polyreactivity"},
      {"sequence": "QVQLVESGGGLVQAGGSLRLSSAASGRTFFRYAMGWYRQAPGKERELVAAITWSGGTTYYADSVKGRFTISRDNAKNTVYLQMNSLKPEDTAVYYCNGRGLWYRRVVTYGYWGQGTQVTVSS", "polyreactivity (PSR sort gate)": "high polyreactivity"},
      {"sequence": "QVQLVESGGGLVQAGGSLRLSSAASGRTFGWNSMGWYRHAPGKERELVAAISRTGNTYYADSVKGRFTISRDNAKNTVYLQMNSLKPEDTAVYYCAKGRYYTPTYFRGVDLYDYWGQGTQVTVSS", "polyreactivity (PSR sort gate)": "low polyreactivity"},
      {"sequence": "QVQLVESGGGLVQAGGSLRLSSAASGRTFRGYAMGWYRQAPGKERELVAAISVTGSSTNYAYSVKGRFTISRDNAKNTVYLQMNRLKPEDTAVYDCNAKRVRYSLSYDYWGQGTQVTVSS", "polyreactivity (PSR sort gate)": "high polyreactivity"},
      {"sequence": "QVQLVESGGGLVQAGGSLRLSSAASGRTFYYYAMGWYRQAPGKERELVAAITSRGTSTYYADSVKGRFTISRDNAKNTVYLQMNSLKPEDTAVFYCAAGFICYYGNGYDYWGQGTQVTVSS", "polyreactivity (PSR sort gate)": "high polyreactivity"},
      {"sequence": "QVQLVESGGGLVQAGGSLRLSSAASGRTLASYAIGWYRQAPGQESELVAAISKRGGGTYYADSVKGRFTISRDNAKNTVYLQMNSLKPEDTAVYYCAKGTGYKPVVTTHPMDYWGQGTQVTVSS", "polyreactivity (PSR sort gate)": "high polyreactivity"},
      {"sequence": "QVQLVESGGGLVQAGGSLRLSSAASGRTLFDNAMGWYRQAPGKEREWVAAIRSDGNTNYADSVKGRFTISRDNAKNTVYLQMNSLKPEDTAVYYCNARSYVGSSRDNYWGQGTQVTVSS", "polyreactivity (PSR sort gate)": "low polyreactivity"},
      {"sequence": "QVQLVESGGGLVQAGGSLRLSSAASGRTLRGYAMGWYRQAPGKERELVAAITWSGGSTYYADSVKGRFTISRDNAKNTVYLQMNSLKPEDTAVYYCNARSYPDLYDYWGQGTQVTVSS", "polyreactivity (PSR sort gate)": "low polyreactivity"},
      {"sequence": "QVQLVESGGGLVQAGGSLRLSSAASGSIFGRYVMGWYRQAPGKERELVATISSGGSTYYADSVKGRFTISRDNAKNTVYLQMNSLKPEVTAVYYCNADYGYEYDYWGQGTQVTVSS", "polyreactivity (PSR sort gate)": "low polyreactivity"},
      {"sequence": "QVQLVESGGGLVQAGGSLRLSSAASGSIFLLYAKGWDRQAPGKERELVAAISRSGDSTHYADSVKGRFTISRDNAKNTVYLQMNSLQPEDTAVYYCAADGYDPYGGLYAYWGHGTQVTVSS", "polyreactivity (PSR sort gate)": "low polyreactivity"},
      {"sequence": "QVQLVESGGGLVQAGGSLRLSSAASGSIFPLYAMGWYRQAPGKERELVATINRRTGSTYADSVKGRFTISRDNAKNTVYLQMKSLKPEYTAVYYCNAADNYVLFYKTRIYNYWGQGTQVTVSS", "polyreactivity (PSR sort gate)": "high polyreactivity"},
      {"sequence": "QVQLVESGGGLVQAGGSLRLSSAASGSIFPRYVMGCYRQAPGKERELVPAISRGGSTNYADSVKGRFTISRDNAKNTVYLQMNSLKPEDTAVYYCDAVLYTRYNYWGQGTQVTVSS", "polyreactivity (PSR sort gate)": "high polyreactivity"},
      {"sequence": "QVQLVESGGGLVQAGGSLRLSSAASGSIFSAYAMGWYRQAPGKERELVATISRSGASTYYADSVKGRFTISRDNAKNTVYLQMNSLKPEDTAVYYCAARYYSPAYRLGGVDYWGQGTQVTVSS", "polyreactivity (PSR sort gate)": "high polyreactivity"},
      {"sequence": "QVQLVESGGGLVQAGGSLRLSSAASGSIFWPNTMGWYRPAPGKERELVAGISFGGGSTYYADSVKGRFTISRDNAKNTVYLQMNRLKPEDTAVYYCNGDDPGYAGPWYWFKYDYWGQGTQVTVSS", "polyreactivity (PSR sort gate)": "low polyreactivity"},
      {"sequence": "QVQLVESGGGLVQAGGSLRLSSAASGSIFYNNAMGWYRQAPGKERELVAAISGSGDSTYYADSVKGRFTISRDNAKNTVYLQMNSLIPDDTAVYYCNATPYVLWWSDMDYWGQGTQVTVSS", "polyreactivity (PSR sort gate)": "high polyreactivity"},
      {"sequence": "QVQLVESGGGLVQAGGSLRLSSAASGSILGDYGMGWYRQAPGKERELVAAITWNGDSTYYADSVKGRFTISRDNAKNTVYLQMNSLKPEDTAVYYCAADLQDYKYYPWYGYWGQGTQVTVSS", "polyreactivity (PSR sort gate)": "low polyreactivity"},
      {"sequence": "QVQLVESGGGLVQAGGSLRLSSAASGSISADYVMGWYRQAPGKERELVAAISVSAGTTYYADSVKGRFTISRDNAKNTVYLQMNSLKPEDTAVYYCAATDSYYWLYYYGYSPGNDYWGQGTQVTVSS", "polyreactivity (PSR sort gate)": "low polyreactivity"},
      {"sequence": "QVQLVESGGGLVQAGGSLRLSSAASGSPFIYYVMGWYRQAPGKERELVAAITRSGSTNYADSVKGRFTISRDNAKNTVYLQMNSLKPEDTAVYYCAAERALSRYGYWGHGTQVTVSS", "polyreactivity (PSR sort gate)": "low polyreactivity"},
      {"sequence": "QVQLVESGGGLVQAGGSLRLSSAASGSTFAFYDMGWYRQAPGKERELVAGISSSGSTYYADSVKGRFTISRDNAKNTVYLQMNSLKPEDTAVYYCAAVLSVRVYGYDYWGQGTQVTVSS", "polyreactivity (PSR sort gate)": "low polyreactivity"},
      {"sequence": "QVQLVESGGGLVQAGGSLRLSSAASGSTFDSNAMGWYRQAPGKERELVAAIDYSSDSTYYADSVKGRFTISRDNAKNTVYLQMNSLKPEDTAVYYCAAVAYIFCARYGYNYWGQGTQVTVSS", "polyreactivity (PSR sort gate)": "low polyreactivity"},
      {"sequence": "QVQLVESGGGLVQAGGSLRLSSAASGSTFGSYTMGWYRQAPGKERELVAAINWSGGNTYYADSVKGRFTISRDNAKNTVYLQMNSLKPEDPAVYYCAAAFYIYGVEGDYWGQGTQVTVSS", "polyreactivity (PSR sort gate)": "low polyreactivity"},
      {"sequence": "QVQLVESGGGLVQAGGSLRLSSAASGSTFISYAMGRYSQAPGQDRELVAAISSGGGRTSYADSVKGRLTISRDHAKNTVYLQMNSLKPEDTAVYYCNKTPHFPRPGFNYWGQGTHVTVSS", "polyreactivity (PSR sort gate)": "low polyreactivity"},
      {"sequence": "QVQLVESGGGLVQAGGSLRLSSAASGSTFTAYAMGWYRQAPGTERELVAAISRSRGRTYYADSVKGRFTISRDNAKYTVYLEMISLKPEDTAVLYCNARGGSDGDYWGQGTQVTVSS", "polyreactivity (PSR sort gate)": "high polyreactivity"},
      {"sequence": "QVQLVESGGGLVQAGGSLRLSSAASGSTFVYNYMGWYRQAPGKERELVAAIDSGGSTYYADSVKGRFTISRDNAKNTVYLQMNSLKPEDTAVYYCAASSDSYFGYHYYYWGQGTQVTVSS", "polyreactivity (PSR sort gate)": "low polyreactivity"},
      {"sequence": "QVQLVESGGGLVQAGGSLRLSSAASGSTFYKYAMGWNRQTPGKERELVAPITGNSGSTYYADSVKGRFTISRDNAKNTVYLQMNSLKPEDTAVYYCAAARPRVWAFNYWGQGTQVTVSS", "polyreactivity (PSR sort gate)": "low polyreactivity"},
      {"sequence": "QVQLVESGGGLVQAGGSLRLSSAASGSTFYYNTMGWSRQAPGKERELVAAISSSGGTTYYADSVKGRFTISRDNAKNTVYLQMNSLKPEDTAVYYCNVATIWYSYARGYGYWGQGTQVTVSS", "polyreactivity (PSR sort gate)": "high polyreactivity"},
      {"sequence": "QVQLVESGGGLVQAGGSLRLSSAASGSTIGYYAMRWYRQAPGKERELVAAISWSGGSTYYADSVKGRFTISRDNAKNTVYLQMNSLKPEDTAVYYCAADTYPDYYLVEYYYWGQGTQVTVSS", "polyreactivity (PSR sort gate)": "low polyreactivity"},
      {"sequence": "QVQLVESGGGLVQAGGSLRLSSAASGSTLRRYAMGWYRQAPGKERELVAAISGSGDSTYYADSVKGRFTISRDNAKNTVYLQMNSLKPEDTAVYYCNAVYAFNGYDYWGQGTQVTVSS", "polyreactivity (PSR sort gate)": "low polyreactivity"}
    ]}
  ]
}
